Test results reported in patent US20250152717A1 (published 2025).

Target: T1, KRAS G12V (same sequence in NRAS and HRAS G12V) peptide on HLA-A*11:01 (human)
T1 peptide: VVGAVGVGK
Assay: stated without data

binding result: recognises
B1: TCR 11N6 (TCR, V domains shown)
Valpha: QQGEEDPQALSIQEGENATMNCSYKTSINNLQWYRQNSGRGLVHLILIRSNEREKHSGRLRVTLDTSKKSSSLLITASRAADTASYFCATDPMNTNAGKSTFGDGTTLTVKP
Vbeta: GVAQSPRYKIIEKRQSVAFWCNPISGHATLYWYQQILGQGPKLLIQFQNNGVVDDSQLPKDRFSAERLKGVDSTLKIQPAKLEDSAVYLCASSPYGGSVSYEQYFGPGTRLTVT
